Assay results taken from the RNAGym collection of RNA variant scans (doi:10.7554/elife.80360).

B1: HDV Ribozyme (parent)
chain: GGCCGGCAUGGUCCCAGCCUCCUCGCUGGCGCCGGCUGGGCAACAUUCCGAGGGGACCGUCCCCUCGGUAAUGGCGAAUGGGACCCA

Variants of: B1
Assay: self-cleavage, relative activity (ratio to wild type); higher = more cleavage; co-transcriptional

Variant	self-cleavage
GGCCGGCAUGGUCCCAGCCUCCUGGCUGGCGCCGGCUGGGCAACAUUCCGAGGGGACCGUCCCAUCGGUAAUGGCGAAUGGGACCCA [C24G C64A]	0.117
GGCCGGCAUGGUCCCAGCCUCCUUGCUGGCGCCGGCUGGGCAACAUUCCGAGGGGACCGUCCCCUCGGUAAUGGCGAAUGGGACCCA [C24U]	0.73
GGCCGGCAUGGUCCCAGCCUCCUGGCUGGCGCCGGCUGGGCAACAUUCCGAGGGGACCGUCCCCUCGGUAAUGGCGAAUGGUACCCA [C24G G82U]	0.0302
GGCCGGCAUGGUCCCAGCCUCCUGGCUGGCGCCGGCUGGGCAACAUUCCGAGCGGACCGUCCCCUCGGUAAUGGCGAAUGGGACCCA [C24G G53C]	0.0817
GGCCGGCAUGGUCCCAGCCUCCUGGCUGGCGCCGGCUGGGCAACAUUCCGAGAGGACCGUCCCCUCGGUAAUGGCGAAUGGGACCCA [C24G G53A]	0.18
GGCCGGCAUGGUCCCAGCCUCCUGGCUGGCGCCGGCUGGGCAACAUUCCGACGGGACCGUCCCCUCGGUAAUGGCGAAUGGGACCCA [C24G G52C]	0.172
GGCCGGCAUGGUCCCAGCCUCCUGGCUGGCGCCGGCUGGGCAACAUUCCGAGGGGACCGUCCCCUCGGAAAUGGCGAAUGGGACCCA [C24G U69A]	0.204
GGCCGGCAUGGUCCCAGCCUCCUUGGUGGCGCCGGCUGGGCAACAUUCCGAGGGGACCGUCCCCUCGGUAAUGGCGAAUGGGACCCA [C24U C26G]	0.615
GGCCGGCAUGGUCCCAGCCUCCUUGUUGGCGCCGGCUGGGCAACAUUCCGAGGGGACCGUCCCCUCGGUAAUGGCGAAUGGGACCCA [C24U C26U]	0.867
GGCCGGCAUGGUCCCAGCCUCCUGGCUGGCGCCGGCUGGGCAACAUUCCGAGGGGACCGACCCCUCGGUAAUGGCGAAUGGGACCCA [C24G U60A]	0.264
GGCCGGCAUGGUCCCAGCCUCCUGGCUGGCGCCGGCUGGGCAACAUUCCGAGGGGACCGCCCCCUCGGUAAUGGCGAAUGGGACCCA [C24G U60C]	0.277
GGCCGGCAUGGUCCCAGCCUCCUUGCUGGCGCCGGCUGGGCAACAUUCCGAGGGGACCGUCCCCUCGGUAAUGGCGAAUGGGACCCC [C24U A87C]	0.739
GGCCGGCAUGGUCCCAGCCUCCUGGCUGGCGCCGGCUGGGCAACAUUCCGAGGGGACCGUCCCCUCGGUAAUGGCGAAUGCGACCCA [C24G G81C]	0.032
GGCCGGCAUGGUCCCAGCCUCCUUGCUGGCGCCGGCUGGGCAACAUUCCCAGGGGACCGUCCCCUCGGUAAUGGCGAAUGGGACCCA [C24U G50C]	0.554
GGCCGGCAUGGUCCCAGCCUCCUUGCUGGCGCCGGCUGGGCAACAUUCCAAGGGGACCGUCCCCUCGGUAAUGGCGAAUGGGACCCA [C24U G50A]	0.726
GGCCGGCAUGGUCCCAGCCUCCUUGCUGGCGCCGGCUGGGCAACAUUCCGAGGGGACGGUCCCCUCGGUAAUGGCGAAUGGGACCCA [C24U C58G]	0.811
GGCCGGCAUGGUCCCAGCCUCCUUGCUGGCGCCGGCUGGGCAACAUUCCGAGGGGACUGUCCCCUCGGUAAUGGCGAAUGGGACCCA [C24U C58U]	0.772
GGCCGGCAUGGUCCCAGCCUCCUUGCUGGCGCCGGCUGGGCAACAUUCCGAGGGGACAGUCCCCUCGGUAAUGGCGAAUGGGACCCA [C24U C58A]	0.789
GGCCGGCAUGGUCCCAGCCUCCUUGCUGGCGCCGGCUAGGCAACAUUCCGAGGGGACCGUCCCCUCGGUAAUGGCGAAUGGGACCCA [C24U G38A]	0.0863
GGCCGGCAUGGUCCCAGCCUCCUUGCUGGCGCCGACUGGGCAACAUUCCGAGGGGACCGUCCCCUCGGUAAUGGCGAAUGGGACCCA [C24U G35A]	0.372
GGCCGGCAUGGUCCCAGCCUCCUUGCUGGCGCCGUCUGGGCAACAUUCCGAGGGGACCGUCCCCUCGGUAAUGGCGAAUGGGACCCA [C24U G35U]	0.131
GGCCGGCAUGGUCCCAGCCUCCUUGCUGGCGCCGCCUGGGCAACAUUCCGAGGGGACCGUCCCCUCGGUAAUGGCGAAUGGGACCCA [C24U G35C]	0.0339

Variant	self-cleavage
GGCCGGCAUGGUCCCAGCCUCCUGGCUGGCGCCGGCUGGGCAACAUUCCGAGGGGACCGUCCCCUCGGUAAUGGCGAAUGGGACCUA [C24G C86U]	0.17
GGCCGGCAUGGUCCCAGCCUCCUUGCUGGCGCCGGCUGGGUAACAUUCCGAGGGGACCGUCCCCUCGGUAAUGGCGAAUGGGACCCA [C24U C41U]	0.616
GGCCGGCAUGGUCCCAGCCUCCUUGCUGGCGCCGGCUGGGGAACAUUCCGAGGGGACCGUCCCCUCGGUAAUGGCGAAUGGGACCCA [C24U C41G]	0.437
GGCCGGCAUGGUCCCAGCCUCCUGGCUGGCGCCGGCUGGGCAACAUUCCGAGGGGACCGUCCCCUCGGUAAUGCCGAAUGGGACCCA [C24G G74C]	0.109
GGCCGGCAUGGUCCCAGCCUCCUGGCUGGCGCCGGCUGGGCAACAUUCCGAGGGGACCGUCCCCUCGGUAAUGACGAAUGGGACCCA [C24G G74A]	0.124
GGCCGGCAUGGUCCCAGCCUCCUGGCUGGCGCCGGCUGGUCAACAUUCCGAGGGGACCGUCCCCUCGGUAAUGGCGAAUGGGACCCA [C24G G40U]	0.17
GGCCGGCAUGGUCCCAGCCUCCUGGCUGGCGCCGGCUGGGCAACAUUCCGAGGGGAUCGUCCCCUCGGUAAUGGCGAAUGGGACCCA [C24G C57U]	0.14
GGCCGGCAUGGUCCCAGCCUCCUGGCUGGCGCCGGCUGGGCAACAUUCCGAGGGAACCGUCCCCUCGGUAAUGGCGAAUGGGACCCA [C24G G55A]	0.166
GGCCGGCAUGGUCCCAGCCUCCUUGCUGGCGCCGGCUGGGCAACAUUCCGAGGGGACCGUCCCCUCGGUAAUGGAGAAUGGGACCCA [C24U C75A]	0.0639
GGCCGGCAUGGUCCCAGCCUCCUUGCUGGCGCCGGCUGGGCAACAUUCCGAGGGGACCGUCCCCUCGGUAAUGGCGAAUGGGAUCCA [C24U C84U]	0.53
GGCCGGCAUGGUCCCAGCCUCCUUGCUGGCGCCGGCUGGGCAACAUUCCGAGGGGACCGUCCCCUCGGUCAUGGCGAAUGGGACCCA [C24U A70C]	0.573
GGCCGGCAUGGUCCCAGCCUCCUUGCUGGCGCCGGCUGGGCAACAUUCCGAGGGGACCGUCCCCUCGGUGAUGGCGAAUGGGACCCA [C24U A70G]	0.706
GGCCGGCAUGGUCCCAGCCUCCUUGCUGGCGCCGGCUGGGCAACAUUCCGAGGGGCCCGUCCCCUCGGUAAUGGCGAAUGGGACCCA [C24U A56C]	0.973
GGCCGGCAUGGUCCCAGCCUCCUUGCUGGCGCCGGCUGGGCAACAUUCCGAGGGGUCCGUCCCCUCGGUAAUGGCGAAUGGGACCCA [C24U A56U]	0.401
GGCCGGCAUGGUCCCAGCCUCCUGGCUGGCGCCGGCUGGGCAACAUUCCGAGGGGACCGUCCGCUCGGUAAUGGCGAAUGGGACCCA [C24G C63G]	0.217
GGCCGGCAUGGUCCCAGCCUCCUUGCUGGCGCCGGCUGGGCAACAUUGCGAGGGGACCGUCCCCUCGGUAAUGGCGAAUGGGACCCA [C24U C48G]	0.627
GGCCGGCAUGGUCCCAGCCUCCUGGCUGGCGCCGGCUGGGCAACAUUCCGAGGGGACCGUACCCUCGGUAAUGGCGAAUGGGACCCA [C24G C61A]	0.112
GGCCGGCAUGGUCCCAGCCUCCUGGCUGGCGCCGGCUGGGCAACAUUCCGAGGGGACCGUGCCCUCGGUAAUGGCGAAUGGGACCCA [C24G C61G]	0.0264
GGCCGGCAUGGUCCCAGCCUCCUUGCUGGCGCCGGCUGGGCAACAUUCCGAGCGGACCGUCCCCUCGGUAAUGGCGAAUGGGACCCA [C24U G53C]	0.848
GGCCGGCAUGGUCCCAGCCUCCUUGCUGGCGCCGGCUGGGCAACAUUCCGAGGGGACCCUCCCCUCGGUAAUGGCGAAUGGGACCCA [C24U G59C]	0.845
GGCCGGCAUGGUCCCAGCCUCCUGGCUGGCGCCGGCUGGGCAACAUUCCGAGGGGACCGUCACCUCGGUAAUGGCGAAUGGGACCCA [C24G C62A]	0.0272
GGCCGGCAUGGUCCCAGCCUCCUUGCUGGCGCCGGUUGGGCAACAUUCCGAGGGGACCGUCCCCUCGGUAAUGGCGAAUGGGACCCA [C24U C36U]	0.402

Variant	self-cleavage
GGCCGGCAUGGUCCCAGCCUCCUUGCUGGCGCCGGGUGGGCAACAUUCCGAGGGGACCGUCCCCUCGGUAAUGGCGAAUGGGACCCA [C24U C36G]	0.141
GGCCGGCAUGGUCCCAGCCUCCUGGCUGGCGCCGGCUGGGCAACAUUCCGAGGGGACCGUCCCCUCGGUAAUGGCGAAUGGGAACCA [C24G C84A]	0.123
GGCCGGCAUGGUCCCAGCCUCCUGGCUGGCGCCGACUGGGCAACAUUCCGAGGGGACCGUCCCCUCGGUAAUGGCGAAUGGGACCCA [C24G G35A]	0.124
GGCCGGCAUGGUCCCAGCCUCCUGGCUGGCGCCGCCUGGGCAACAUUCCGAGGGGACCGUCCCCUCGGUAAUGGCGAAUGGGACCCA [C24G G35C]	0.0332
GGCCGGCAUGGUCCCAGCCUCCUUGCUGGCGCCGGCUGGGCAAUAUUCCGAGGGGACCGUCCCCUCGGUAAUGGCGAAUGGGACCCA [C24U C44U]	0.434
GGCCGGCAUGGUCCCAGCCUCCUUGCUGGCGCCGGCUGGGCCACAUUCCGAGGGGACCGUCCCCUCGGUAAUGGCGAAUGGGACCCA [C24U A42C]	0.125
GGCCGGCAUGGUCCCAGCCUCCUUGCUGGCGCCGGCUGGGCUACAUUCCGAGGGGACCGUCCCCUCGGUAAUGGCGAAUGGGACCCA [C24U A42U]	0.17
GGCCGGCAUGGUCCCAGCCUCCUUGCUGGCGCCGGCUGGGCAACAUUCCGAGGGGACCGUCCCCUCGGUAAUGGCGGAUGGGACCCA [C24U A77G]	0.53
GGCCGGCAUGGUCCCAGCCUCCUUGCUGGCGCCGGCUGGGCAACAUUCCGAGGGGACCGUCCCCUCGGUAAUGGCGUAUGGGACCCA [C24U A77U]	0.0791
GGCCGGCAUGGUCCCAGCCUCCUUGCUCGCGCCGGCUGGGCAACAUUCCGAGGGGACCGUCCCCUCGGUAAUGGCGAAUGGGACCCA [C24U G28C]	0.0475
GGCCGGCAUGGUCCCAGCCUCCUUGCUAGCGCCGGCUGGGCAACAUUCCGAGGGGACCGUCCCCUCGGUAAUGGCGAAUGGGACCCA [C24U G28A]	0.172
GGCCGGCAUGGUCCCAGCCUCCUUGCUGGCGCCGGCUGGGCAACAUUCCGAGGGGACCGUCCCCUCGGUAAUGGCGACUGGGACCCA [C24U A78C]	0.196
GGCCGGCAUGGUCCCAGCCUCCUGGCUGGCGCCGGCUGGGCAACAUUCCGAGGGGACCGUCCCCUCGAUAAUGGCGAAUGGGACCCA [C24G G68A]	0.22
GGCCGGCAUGGUCCCAGCCUCCUGACUGGCGCCGGCUGGGCAACAUUCCGAGGGGACCGUCCCCUCGGUAAUGGCGAAUGGGACCCA [C24G G25A]	0.0959
GGCCGGCAUGGUCCCAGCCUCCUGCCUGGCGCCGGCUGGGCAACAUUCCGAGGGGACCGUCCCCUCGGUAAUGGCGAAUGGGACCCA [C24G G25C]	0.145
GGCCGGCAUGGUCCCAGCCUCCUUGCUGGCGCCGGCUGGUCAACAUUCCGAGGGGACCGUCCCCUCGGUAAUGGCGAAUGGGACCCA [C24U G40U]	0.337
GGCCGGCAUGGUCCCAGCCUCCUUGCUGGCGCCGGCUGGACAACAUUCCGAGGGGACCGUCCCCUCGGUAAUGGCGAAUGGGACCCA [C24U G40A]	0.701
GGCCGGCAUGGUCCCAGCCUCCUGGCUGGCGCCGGCUGGGCAACAUUCCGAGGGGACCGUCCCCUCGGUAAUGGCGAAUGGGACUCA [C24G C85U]	0.107
GGCCGGCAUGGUCCCAGCCUCCUGGCUGGCGCCGGCUGGGCAACAUUCCGAGGGGACCGUCCCCUCGGUAAUGGCGAAUGGGACACA [C24G C85A]	0.141
GGCCGGCAUGGUCCCAGCCUCCUGGCUGGCCCCGGCUGGGCAACAUUCCGAGGGGACCGUCCCCUCGGUAAUGGCGAAUGGGACCCA [C24G G31C]	0.0563
